Data on 18 molecules can be found in patent publication US20140134183A1 (CELL MEDICA SWITZERLAND, published 2014).

Test [1] deals with T1, recombinant human IL-1 beta (human, UniProt P01584 117-269). In words: cell-based or functional assay.
Test [2] concerns the target T1, recombinant human IL-1 beta. In words: ELISA, cleared E. coli lysate on coated rhIL-1 beta. The protocol: The resulting scFv mutants are expressed in 96-well format in 1 ml cultures in E. coli BL21 (DE3) (Novagen, USA, cat. no. 69450-3). […] Cells were lysed in lysis buffer (1 mM EDTA, 0.1 mg/ml lysozyme, PBS pH 7.2) in a 96-well format by freezing and subsequent thawing. Derived crude extracts were cleared by centrifugation. Supernatants were added to wells of a microtiterplate coated with 50 ng/ml of rhIL-1 beta (Peprotech) per well. After washing, bound scFvs are detected by ProteinL-HRP and binding to rhIL-1 beta quantified by BM Blue POD Substrate (Roche Applied Science).
In general terms: ELISA stands for enzyme-linked immunosorbent assay.

Test [3] shares this target. The test can be described thus: cell-based or functional assay. This is another data set of the same source.

Like-named read-outs stand apart in the source and are kept apart here.

B1: DLX2464 (scFv)
scFv: EIVMTQSPSTLSASVGDRVIITCQASQSIDNWLSWYQQKPGKAPKLLIYRASTLASGVPSRFSGSGSGAEFTLTISSLQPDDFATYYCQNTGGGVSIAFGQGTKLTVLGGGGGSGGGGSGGGGSGGGGSEVQLVESGGGLVQPGGSLRLSCTASGFSLSSAAMAWVRQAPGKGLEWVGIIYDSASTYYASWAKGRFTISRDTSKNTVYLQMNSLRAEDTAVYYCARERQIFSGDMAGWGQGTLVTVSS
As to B1, the “IC50 of IL-1 beta-induced IL-6 release from human dermal fibroblasts” value (shortened to “IC50 of IL-1 beta-induced IL-6 release”) in test [1] is 0.004 nM.

B2: DLX2476 (scFv)
scFv: EIVMTQSPSTLSASVGDRVIITCQASQSISSWLSWYQQKPGKAPKLLIYRASTLASGVPSRFSGSGSGAEFTLTISSLQPDDFATYYCQNTGGGVSIAFGQGTKLTVLGGGGGSGGGGSGGGGSGGGGSEVQLVESGGGLVQPGGSLRLSCTASGFSLSSAAMAWVRQAPGKGLEWVGIIYDSASTYYASWAKGRFTISRDTSKNTVYLQMNSLRAEDTAVYYCARERDIFSGDFVGWGQGTLVTVSS
As for B2, in test [1], the “IC50 of IL-1 beta-induced IL-6 release” value came out at 0.1 nM.

B3: DLX2465 (scFv)
scFv: EIVMTQSPSTLSASVGDRVIITCQASQSIDNWLSWYQQKPGKAPKLLIYRASTLASGVPSRFSGSGSGAEFTLTISSLQPDDFATYYCQNTGGGVSIAFGQGTKLTVLGGGGGSGGGGSGGGGSGGGGSEVQLVESGGGLVQPGGSLRLSCTASGFSLSSAAMAWVRQAPGKGLEWVGIIYDSASTYYASWAKGRFTISRDTSKNTVYLQMNSLRAEDTAVYYCARERNIFSGDMDLWGQGTLVTVSS
As for B3, the “IC50 of IL-1 beta-induced IL-6 release” value in test [1] stood at 0.004 nM.

B4: DLX2475 (scFv)
scFv: EIVMTQSPSTLSASVGDRVIITCQASQSIDKWLSWYQQKPGKAPKLLIYQASTLASGVPSRFSGSGSGAEFTLTISSLQPDDFATYYCQNTGGGVHIAFGQGTKLTVLGGGGGSGGGGSGGGGSGGGGSEVQLVESGGGLVQPGGSLRLSCTASGFSLSSYAMAWVRQAPGKGLEWVGIIYDSASTYYASWAKGRFTISRDTSKNTVYLQMNSLRAEDTAVYYCARERAIFSGDFKLWGQGTLVTVSS
As for B4, the “IC50 of IL-1 beta-induced IL-6 release” value in test [1] was determined as 0.2 nM.

B5: DLX2480 (scFv)
scFv: EIVMTQSPSTLSASVGDRVIITCQASQSIDNWLSWYQQKPGKAPKLLIYRASTLASGVPSRFSGSGSGAEFTLTISSLQPDDFATYYCQNTGGGINIAFGQGTKLTVLGGGGGSGGGGSGGGGSGGGGSEVQLVESGGGLVQPGGSLRLSCTASGFSLSDAAMAWVRQAPGKGLEWVGIIYDSASTYYASWAKGRFTISRDTSKNTVYLQMNSLRAEDTAVYYCARERQIFSGDFVLWGQGTLVTVSS
B5: the “IC50 of IL-1 beta-induced IL-6 release” value in test [1] stood at 0.005 nM.

B6: DLX2466 (scFv)
scFv: EIVMTQSPSTLSASVGDRVIITCQASQSIGKYLSWYQQKPGKAPKLLIYRASTLASGVPSRFSGSGSGAEFTLTISSLQPDDFATYYCQNAGGGVSIAFGQGTKLTVLGGGGGSGGGGSGGGGSGGGGSEVQLVESGGGLVQPGGSLRLSCTASGFSLSSDAMAWVRQAPGKGLEWVGIIYDSASTYYASWAKGRFTISRDTSKNTVYLQMNSLRAEDTAVYYCARERNIFSGDMAGWGQGTLVTVSS
Take B6: the “IC50 of IL-1 beta-induced IL-6 release” value in test [1] was found to be 0.3 nM.

B7: DLX2467 (scFv)
scFv: EIVMTQSPSTLSASVGDRVIITCQASQSIHNWLSWYQQKPGKAPKLLIYRASNLASGVPSRFSGSGSGAEFTLTISSLQPDDFATYYCQNTGGGSSIAFGQGTKLTVLGGGGGSGGGGSGGGGSGGGGSEVQLVESGGGLVQPGGSLRLSCTASGFSLSRAAMAWVRQAPGKGLEWVGIIYDSASTYYASWAKGRFTISRDTSKNTVYLQMNSLRAEDTAVYYCARERMIFSGDFVLWGQGTLVTVSS
Regarding B7, in test [1], the “IC50 of IL-1 beta-induced IL-6 release” value came out at 0.025 nM.

B8: DLX2468 (scFv)
scFv: EIVMTQSPSTLSASVGDRVIITCQASQSIGNYLSWYQQKPGKAPKLLIYRASTLASGVPSRFSGSGSGAEFTLTISSLQPDDFATYYCQNAGGGTSIAFGQGTKLTVLGGGGGSGGGGSGGGGSGGGGSEVQLVESGGGLVQPGGSLRLSCTASGFSLSSSAMAWVRQAPGKGLEWVGIIYDSASTYYASWAKGRFTISRDTSKNTVYLQMNSLRAEDTAVYYCARERNIFSGDMVLWGQGTLVTVSS
In the case of B8, the “IC50 of IL-1 beta-induced IL-6 release” value in test [1] turned out to be 0.015 nM.

B9: DLX2690 (scFv)
scFv: ADIVMTQSPSTLSASVGDRVTITCQASQSISSYLSWYQQKPGKAPKLLIYKASTLASGVPSRFSGSGSGTDFTLTISSLQPEDFATYYCQNAGGGINIAFGQGTKVEIKRGGGGSGGGGSGGGGSGGGGSEVQLVESGGGLVQPGGSLRLSCTVSGFSLSSYAMSWVRQAPGKGLEWIGIIYDSASTYYASWAKGRFTISKDTSKNTLYLQMNSLRAEDTAVYFCARERQIFSGDMDGWGQGTTVTVSS
notes: tested as cleared E. coli lysate; also called DLX2544_2548
For the molecule B9, the binding result in test [2] was “binds”.

B10: DLX2687 (scFv)
scFv: EIVMTQSPSTLSASVGDRVTITCQASQSISSWLSWYQQKPGKAPKLLIYKASTLASGVPSRFSGSGSGTEFTLTISSLQPDDFATYYCQNAGGGVSIAFGQGTKLTVLGGGGGSGGGGSGGGGSGGGGSEVQLVESGGGLVQPGGSLRLSCTVSGFSLSSYAMSWVRQAPGKGLEWVGIIYDSASTYYASWAKGRFTISKDTSKNTVYLQMNSLRAEDTAVYYCARERAIFSGDFDYWGQGTLVTVSS
notes: tested as cleared E. coli lysate; also called DLX2543_2585
With B10, the binding result in test [2] is given as “binds”.

B11: DLX2682 (scFv)
scFv: EIVMTQSPSTLSASVGDRVIITCRASQSIGNWLSWYQQKPGKAPKLLIYRASNLASGVPSRFSGSGSGAEFTLTISSLQPEDFATYYCQNTGGGINIAFGQGTKLTVLGGGGGSGGGGSGGGGSGGGGSEVQLVESGGGLVQPGGSLRLSCTVSGFSLSSYAMSWVRQAPGKGLEWIGIIYDSASTYYASWAKGRFTISKDTSKNTLYLQMNSLRAEDTAVYFCARERQIFSGDMDGWGQGTTVTVSS
notes: tested as cleared E. coli lysate; also called DLX2529_2548
With B11, the binding result in test [2] is given as “binds”.

B12: DLX2681 (scFv)
scFv: EIVMTQSPSTLSASVGDRVIITCRASQSIGNWLSWYQQKPGKAPKLLIYRASNLASGVPSRFSGSGSGAEFTLTISSLQPEDFATYYCQNTGGGINIAFGQGTKLTVLGGGGGSGGGGSGGGGSGGGGSEVQLVESGGGNVQPGGSLRLSCTASGFSLSNSAMAWVRQAPGKGLEWVGIIYDSASTYYASWAKGRFTISRDNSKNTVYLQMNSLRAEDTATYYCARERAIFSGDFALWGQGTLVTVSS
With B12, the “IC50 of IL-1 beta-induced IL-6 release” value in test [3] worked out at 0.0006 nM.

B13: DLX2683 (scFv)
scFv: EIVMTQSPSTLSASVGDRVIITCRASQSIGNWLSWYQQKPGKAPKLLIYRASNLASGVPSRFSGSGSGAEFTLTISSLQPEDFATYYCQNTGGGINIAFGQGTKLTVLGGGGGSGGGGSGGGGSGGGGSEVQLVESGGGLVQPGGSLRLSCTVSGFSLSSYAMSWVRQAPGKGLEWVGIIYDSASTYYASWAKGRFTISKDTSKNTVYLQMNSLRAEDTAVYYCARERAIFSGDFDYWGQGTLVTVSS
notes: tested as cleared E. coli lysate; also called DLX2529_2585
Take B13: the binding result in test [2] is given as “binds”.

B14: DLX2693 (scFv)
scFv: ADIVMTQSPSTLSASVGDRVTITCQASQSISSYLSWYQQKPGKAPKLLIYRASTLASGVPSRFSGSGSGAEFTLTISSLQPDDFATYYCQNTGGGINIAFGQGTKLEIKRGGGGSGGGGSGGGGSGGGGSEVQLVESGGGNVQPGGSLRLSCTASGFSLSNSAMAWVRQAPGKGLEWVGIIYDSASTYYASWAKGRFTISRDNSKNTVYLQMNSLRAEDTATYYCARERAIFSGDFALWGQGTLVTVSS
On to B14, for which the “IC50 of IL-1 beta-induced IL-6 release” value in test [3] stood at 0.0125 nM.

B15: DLX2692 (scFv)
scFv: ADIVMTQSPSTLSASVGDRVTITCQASQSISSYLSWYQQKPGKAPKLLIYRASTLASGVPSRFSGSGSGAEFTLTISSLQPDDFATYYCQNTGGGINIAFGQGTKLEIKRGGGGSGGGGSGGGGSGGGGSEVQLVESGGGNVQPGGSLRLSCTASGFSLSDAAMAWVRQAPGKGLEWVGIIYDSASTFYASWAKGRFTISRDNSKNTLYLQMNSLRAEDTATYYCARERNIFSGDMALWGQGTTVTVSS
notes: tested as cleared E. coli lysate; also called DLX2547_2530
With B15, the binding result in test [2] is “binds”.

B16: DLX2689 (scFv)
scFv: ADIVMTQSPSTLSASVGDRVTITCQASQSISSYLSWYQQKPGKAPKLLIYKASTLASGVPSRFSGSGSGTDFTLTISSLQPEDFATYYCQNAGGGINIAFGQGTKVEIKRGGGGSGGGGSGGGGSGGGGSEVQLVESGGGNVQPGGSLRLSCTASGFSLSNSAMAWVRQAPGKGLEWVGIIYDSASTYYASWAKGRFTISRDNSKNTVYLQMNSLRAEDTATYYCARERAIFSGDFALWGQGTLVTVSS
notes: tested as cleared E. coli lysate; also called DLX2544_2531
For B16, in test [2], the binding result is “binds”.

B17: canakinumab IgG (Novartis, ILARIS) (antibody, V domains shown)
VH: QVQLVESGGGVVQPGRSLRLSCAASGFTFSVYGMNWVRQAPGKGLEWVAIIWYDGDNQYYADSVKGRFTISRDNSKNTLYLQMNGLRAEDTAVYYCARDLRTGPFDYWGQGTLVTVSS
VL: EIVLTQSPDFQSVTPKEKVTITCRASQSIGSSLHWYQQKPDQSPKLLIKYASQSFSGVPSRFSGSGSGTDFTLTINSLEAEDAAAYYCHQSSSLPFTFGPGTKVDIKR
Regarding B17, the “IC50 of IL-1 beta-induced IL-6 release” value in test [3] turned out to be 0.09 nM.

B18: DLX2684 (scFv)
scFv: EIVMTQSPSTLSASVGDRVTITCQASQSISSWLSWYQQKPGKAPKLLIYKASTLASGVPSRFSGSGSGTEFTLTISSLQPDDFATYYCQNAGGGVSIAFGQGTKLTVLGGGGGSGGGGSGGGGSGGGGSEVQLVESGGGNVQPGGSLRLSCTASGFSLSDAAMAWVRQAPGKGLEWVGIIYDSASTFYASWAKGRFTISRDNSKNTLYLQMNSLRAEDTATYYCARERNIFSGDMALWGQGTTVTVSS
notes: tested as cleared E. coli lysate; also called DLX2543_2530
As for B18, the binding result in test [2] is recorded as “binds”.
